Data reported in US12077763B2, “RNA-based control of powdery mildew” (Greenlight Biosciences, Inc., priority 2021, dated 2024).

B1: GS1820: dsRNA trigger SEQ ID NO 164; gene target Mitochondrial carrier protein LEU5 (nucleic acid)
DNA: TTTTTTACAGCCTCTTTGGGAAATCTTATGGATTGAGGCGAAGGCGGAACTTCATTATATATGATTTTGCAAATGTGTGAAAAGCTTGAGCTCGCACCTTTCTTTGTTTCAAAAGCTAGCCGAACCCTTATGACTTCTAAGGGATATGTGAAGAAAACACTAGCGACGCCTGCTAAACTGCCACTTAACAATCTTCGTAATGATGTTTCTTGCGTAGGTGATGATATAAGAAATGATCGTATTTGCTCGTAGGTTAAAAACTTGATCGCAGCATAAGGAAATATCCGAATTATAGTGGCAGAATGGCCACGAAATAGACCACTAATTCCATCAGTAGCTTTGATTTGCCGTATAGCAGTCACAACGCCGAGCCAGCTCCCAGCGTATCTGGAAAATTGTGGATTAGAAGATTGGAATAATATCTTCACACGATCTAAAGGTGCCACTATAGTTTTTGCCGCACTCCCTGCTAGTCCTCCAGCTAATCCTGACCGCCATATGAATCCCAAAGATTGCTTTTCATGAGTTTGGGATTTTGATGAATCTTTTTTATTTTTCGTAGAAGGGTATACTGCAATATTACTTTCATATAAAT
B2: GS1821: dsRNA trigger SEQ ID NO 131; gene target ABC transporter ATP-binding protein ARB1 (nucleic acid)
DNA: AACACCATTAGGCCCTACCAAAGCTGTTCGAGAGTCCATATCAACACCTAGATCCAAATGTCTGTATAAATCATCTTTAGGATCACCAGAGTATGAAAAAGTAACATCGTCAAATGATAACACTGGTGGAGGAAGTTTTTCCACGTCTGCAAATCTGAAAGTAAAGATACGGTCAGGCTCAACTTTTTGAATGAAGCCATCTGCTTCCATCTTGTCTAGTATTTTTTGTCGTGATTTAGCCTGTCTGACTAAGTTGGCATAAGTACCAGCAGATGCAATAAATTTTTTGATATGAGCGATTTCGTCTTGTTGCTTGTGATAAGCTTTCATTTGGTTGACTTCTAACTCAGAGCGGGTCTTTTGGTATGTATCATAATTTCCACCATAATATGTAAGTTGTTTTTGCCGCATATCAATCATATTGGTGCAGACTCCATTTAGAAAGTCCATTGAATGAGACACTAATACAAGACTTCGATCCCACTTCTTAAGATATTCTTCAAGCCACACACAAGCTTCCAAGTCTAAGTGCGCAGTCGGATCATCAAGTAGAAGTAAAGATGGCTTAACAAAAAGGGCTTTTGCTAAAGCTACA
B3: GS1822: dsRNA trigger SEQ ID NO 206; gene target Putative phospholipid-transporting ATPase C6C3.06c (nucleic acid)
DNA: TCTCTTCGCGACCGATATCCATTTCCTGAGGGTAACAGAGAATGATCTTCAGCACTGTCTGGGTTGTATCTGCCAGTTCCCTCAACATCTGGGTCGTCCCTCAATAAGCTATGTAAGTCCTCTTCAGCGTAGTCTAAATTCCTTGGGGCCCCATTTCTTCTTCCTAACCCTCTGAATCCGCTCATGCGTAGATTTCTCAACGGAATATTGCTTTCAGTTCTCCAGTCATGCGCTTTCGGTTTGATCCCTTGTTCAAGCTCCTGGATATCTAAATCCAGATCGGAGTCCGAATCAGCTTGAGGTGGAATTTGATCGCCCTGATGATAATATGAGCCCGAAGACATGCCTCATTGTATTTTATCGTTTGATCTCTATAATCTCCTAGGTGATGTTATAAAGCTTGACCGCATAAAATCGGTTAATCATTTAAGCAAATGCAGTTGCGGTGTGTCATATCTTTCACGGCAGCATCTAGTATGTCTAGTATGGCTGCTACTGTATTTTAAATAAACCAAAACATGTTCAACACATTTCATAAGGTATAAGAAGGATTGTGAATATAATTTACTGGTAAATTTTAAATCATAGTTGAAAA
B4: GS1823: dsRNA trigger SEQ ID NO 158; gene target Guanine nucleotide-binding protein subunit beta-like protein (nucleic acid)
DNA: TAGCCAGTATCTGTTAGGCGAAAAAACAAGCGCATGGATCAAATCACCAGCATTGAGAGAATATAAATGCTTAGACTCATTTAGATCCCACAACATAGTAGTCCCATCTTTCCCACCTGATGCGCAGAGAGAACCGTCCGGCGAGATGGTGACAGTATTTATGTAACCATTGTGGCCAATATGGTCAGTCTGTAGTTTACAAGAGGATAATTCCCAGACCTTCACAAGTTTGTCCCAGCTACTGCTGACAATGACTGGATTTTGTGGATTTGGGCTGAATCGTACACAAGATACCCAATCATTATGACCTTTTTCAGTAATGGTGAACTTGCAATCACCTAGAGTATTCCAGAGCTTAATTGTTCGATCACGAGAGCCCGAGACAATTTGCCTGTTGTCAGCGGAAAAAGAAACAGAAAGAACATCATTTGTGTGGCCGACAAATCTCCTTGTTGTGGTTCCTGTTGCAAGCTCCCAGAGTCGGAGAGTTTTATCCCAAGAAGCAGATAGAGCATAAGCACCATCAGAAGAAATTACACAGTCGGAAACTATATGAGAGTGGCCATGAAGTGATCGCTTTGGGTAACCGTAGGAA
B5: GS1824: dsRNA trigger SEQ ID NO 200; gene target WD repeat domain-containing protein 83 (nucleic acid)
DNA: CTTGCCATCTCTTCCAACCTTTCTCTTACCATCAAACTTTGTTCCTTTTACTGTGATCCTCTCGACAAGTTTTCCGCTCAATGTATCCCAGACAACCACTTCACCATCTTGTCCTTCAATATTCTCGTTTCCAGAAAGTATCCATCTCTCTCTTCCACCAAAACAGTTCCATATTCGAAATTCTTTGTTTTCCCAGCAATCTGCACGATAACTCCTTAGTAATTTACCATTCTCGGTATCCATTAGTCTAAGCTGACTATCCAGTCCACCTACAAGTAGACCTTTTTTATCTATTGTCTTCCTTAGACATGTCACAGGAGCACCAATAACATCGACAACAATTTGTCCCATTCTAATGTCGTATTTCCTAACTTTTCCATCGACACTACTGGTCCATATCTCGCTATCACTCGCTAATACGCAGCTCACACTATCACCAGCCTCTGTTAGAACCATAACTGGCTTAGCACTCGAGCTCTTCACATCCCAGATACGAGCACTGGCATCAAAACCTCCACTAATAAGAAGACTGGCTCCATCCCCAGCAAAAGTAACGGTATTGATGCGTGCCGAATGACCATTGTTGCCACTAAAT
B6: GS1825: dsRNA trigger SEQ ID NO 141; gene target Serine/threonine-protein kinase cek1 (nucleic acid)
DNA: CGACCGATTAATCCCATTCTAGACAAGCCAAAATCTGTCAATTTAAGATGGCCTTTCTGATCAATTAAGAGATTGTCAGGTTTAAGATCTCGATGAACTATCCCTCGACTATGAAGATGTTTGACCCCTAGGATAACCTCACCTAAGTATTTTCTTGCCCAATCCTCTTGAAGACCGCCTAAAGCCTTTATAAGTGACGCACAGTCGCCTCCATTCAAATATTCCATAACCAAGTAGAGATAGTCTTTACTTGAGAATGTCCAGTATAATTTAGCTACAAAGTCACTCTCACCTTGCCACATCATGATTGCACGTTCAGCTTTAACGTTAGTTACCTGATTTTTGGCTACCATATCGGCTTTTTTAAGTACTTTGATTGCATAGTAGTCACCTGTAGATTTTTTCTTGGCAAGATAAACACTTCCGAATGCACCTTTACTGATAGGTTTTATTATTTCAAAGTCTTTTATGGAGGGTGGAACAATACGGGCTTGGGGAACACCGACAGTTGATAAACGAGGTGATGGAGGTAGTCGAGATGGGTCAGAGCCTGCAGCAGAAGATTGACGTCTATGGTGATGAGGTAGAAGAGCA
B7: GS1826: dsRNA trigger SEQ ID NO 180; gene target Adenosylhomocysteinase (nucleic acid)
DNA: CGCGAGTAAGATTATATGACGACCATTCTTCATTAGAAAACGATCGACTTGGGGCTTAATATTTTGAACGCTTTGTGCATTAGCTTTAAGCCATGCGACATCTATTTCAATGTCAAAGTGTCCAATATTGCAAACAATAGCATCGTTAGGCATAACTTCAAAATGTTTTCCTACTAAAATGTCACGGCATCCTGTAGTAGTTACGAAGATCTGAGCTTGACTTGCGGCCTTTTCCATTGTGGTGACTTGGAAGCCAGAAACTGCAGCTTGTAAAGCATTTATAGGGTCAACCTCAGTAATTAGTACACGTGCACCCATACCCTGAAGAGCTAATGCACACCCTTTTCCAACATCACCAAAACCAGCAACAACGGCAATTTTTCCAGCAATCATAACATCGGTGGCTCGTTTAATACCATCGATCAAAGACTCGCGGCAGCCATAGAGATTGTCAAACTTAGACTTTGTGACAGAATCATTGACGTTAACCGCAGGCACGAGCAAAGTATTGTTTTTTAACATTTTATATAAATGGTGAACTCCAGTAGTGGTTTCCTCAGATACACCAAAGCAACCTTTTAACATTTCTGGATA
B8: GS1827: dsRNA trigger SEQ ID NO 195; gene target Ubiquitin-like modifier-activating enzyme 1 (nucleic acid)
DNA: AAAGTTATCGCCGAAGTCGCAGAATATATATCCAAATAATCCAAAGGTTTCAGTTATTACTACATATATTCCCTTCTCATGTAGATACTGGGAGATTATGAGCTGGTCTTTCAGTGGAATATCTGTCAATATTACAGCTTGATATGAATCAAACTGGGAGAGATCAGAAACTAAGCTTGTGGAGCTGTGAATCTTAACAGGGGTGTAAGCATTTAGTTCCGAAACTCGTTGAGCTGAGACAATATCTCTAGGTTTTCCTATATCTTCTGGGTTAAGAAAGAATTGAGATGATAGGTCAGCGATAGTTGCGGGAGCGGGATCGTATAATGTTAGACTTTTAACTCCAGCCAGAGCTATATTCTTAGCTATTTCGATACCAAGACCTTTCAAGCCAATAATAAGAATATTCGATGCACTCATTCGTTTCATAGCCTCGTGTCCAAGAACGTAGAGTTGCCTACTGTATAAAGACTCATCGATAACATTATTATTTTCTTGTGACTCATCAACTTCCATCTTCATCTTGTCTTCAATTTTACTGACTTCACTCATCTTGAATACTTCCTGTAAATCCAATTTACATCAACTGAATTA

Test system: E. necator
Assay: Leaf disc assay, dry inoculum (settling tower), decrease in disease severity / hyphal growth (Example 2)
Conditions: decrease in disease severity (hyphal growth) relative to untreated control, value ± SE; for % decrease =/− SE TP1: time point 1 (untreated control hyphal growth ≥50%); for % decrease =/− SE TP2: time point 2

Molecule	% decrease =/− SE TP1 [%]	% decrease =/− SE TP2 [%]
B1	23 ± 4	10 ± 6
B2	29 ± 5	19 ± 6
B3	23 ± 5	16 ± 4
B4	31 ± 8	26 ± 8
B5	26 ± 7	19.5 ± 8
B6	28 ± 5	18 ± 6
B7	19 ± 6	6 ± 5
B8	45 ± 2	40 ± 4
